Assay results taken from article doi:10.1101/2020.08.02.233536.

Key:
[1] = target: His-tagged SARS-CoV RBD protein (binding studies) (SARS-CoV) (UniProt P59594); assay: BLI
[2] = target: His-tagged SARS-CoV-2 RBD protein (binding studies) (SARS-CoV-2) (UniProt P0DTC2); assay: BLI

What does the source list for COVA1–16 Fab, His-tagged?
Kd [1]: 0.405 µM; Kd [2]: 0.046 µM

For COVA1–16 IgG1 antibody, which Kd [1] is on record?
The Kd was 0.125 µM.

And the Kd [2]?
The Kd was 0.0002 µM.
